For experiment [1], the target named is T1, SARS-CoV-2 spike RBD, Wuhan-Hu-1 (SARS-CoV-2, UniProt P0DTC2 321-536). Description: BLI. Background: BLI is a label-free optical method that tracks binding on a fibre tip over time.
Experiment [2] deals with T1, SARS-CoV-2 spike RBD, Wuhan-Hu-1. Put plainly: BLI. This is another data set of the same source.

B1: NCV2SG48 monoclonal antibody (human IgG) (antibody, V domains shown)
VH: EVQLVESGGGLIQPGGSLRLSCAASGFIVSRNYMNWVRQAPGKGLEWVALIYSGGSTFYADSVKGRFTISRDNSKNTLYLQMNSLRAEDTAVYYCARDLVVYGLDYWGQGTLVTVSS
VL: AIQLTQSPSSLSASVGDRVTITCRASQGISSHLAWYQQKPGKAPKLLIFAASTLQSGVPSRFSGSGSGTDFTLTISSLQPEDFATYYCQHLNSNPPITFGQGTRLEIK
For B1, the koff in experiment [1] is 0.00015 s⁻¹. In experiment [2], this molecule registered a Kd of 2.5 nM.

B2: NCV2SG53 monoclonal antibody (human IgG) (antibody, V domains shown)
VH: QVQMVESGGGLVRPGGSLRLSCAASGFTFSDYYMSWIRQAPGKGLEWISYISSSGSSMNYADSVKGRFTISRDNAKNSLFLQMNSLRAEDTAVYYCAREFDLTKIIMVPPYWGQGTLVTVSS
VL: AIQLTQSPSSLSASVGDRVTITCRASQGISSYLAWYQQKPGKAPKVLIYAASTLQSGVPSRFSGSGSGTDFTLTISSLQPEDFATYYCQQLKSYPLTFGGGTKVEIT
With B2, the koff in experiment [1] was determined as 0.00022 s⁻¹. Also, in experiment [2], the Kd was found to be 2.6 nM.

One may read the koff as the first-order rate constant of dissociation. Higher therefore signals fast dissociation. Usually Kd stands for the constant that tells how readily two partners part at equilibrium. A low value points to higher affinity.

The values above are taken from article PMC10088672 (2023).
